The assay has as its target BCR-ABL kinase available in the cell (the BCR-ABL expressing cells). The assay can be described thus: 35S-methionine labelling, immunoprecipitation with anti-ABL or anti-GRB-2 antibodies.

With “GRB-2 (form and cells not named in the sentence) (from UniProt P62993 1-217)”, the percent of the BCR-ABL kinase available in the cell complexed with GRB-2 was 50 to 90%.

Values taken from patent US6528270.
